The values that follow come from the DeepSol protein solubility set.

The nature of this data set: soluble on expression in E. coli; label from the status in PepcDB or PDB records.
For “MIPTISDVSTVEEWRSVAKDIVQRDGDVNWRATIVDWPGLGYSARPKMDYDTDVMEKFVVDFMNSPESPMSQSGNDDLVIIGGGHAATLALRATQRGLLKPSAIAAVAPTWAGPLPIVFGRDSSMVSRYGMLRGTLRAPGVGWMMYNMLVSNEKSIESQYKSHVYADQTNVTDAIIQSRYELTKQKGSRYVPAAFLTGLLDPVSSREEFLQLFADLEGKLPVMVMSTKGAPKRSKAEMEALRGAKGVSKFVEVEGALLPQEEYPSLVAQELYNFLQETFAKC”, the “soluble on expression in E. coli” value is on record as “not soluble”.
In the case of “MSLSAAEAGPLQGGLHVLIVDDNDINLKVLSTFMSKIGCSYDTASNGLVAVEKYRQTQQKFDYVLMDISMPIMDGITASRTIREYEDESLLERCTIMAVTGVASSDMQQQAFAAGMDDYLVKPLSLHDLKRILGVNEGHHHHHH”, the “soluble on expression in E. coli” value is “not soluble”.
Turning to “DLVIIVDDERRIVDVNAAATALFDGDQNTLLGRSLPQASPTLAETVPGPGERTQTETALERDGSVRYYDVRVIPLYRAYGVVSGHLISLRD”, the “soluble on expression in E. coli” value is “not soluble”.
As for “MSLVTIKEIASAVGVSSATVSRVLNYDPTLSISTRKRQAIIETAEALNYATPRNRNRAAAQAVGSGLKIALVHFLDPAQELADPYYVGVRLGIESRCQALNSDVVKVFLTGNTPEATILEGASGVVAVGHYYGDELEWLRRHSRHLVFADYAPAGDMEDTVLSDVSQAMIRLLEAVHAMGYRRIGFIGWIDAFYGPDNIHSERRCHTYIDWMTKTGLFDPELCLVDPMTPDSGYRLAKAMLSKPNPPKILITCNDNMALGAYRAINEMGLRIPDDVAVASFNDIPVAQFLGPPLSTVKIPAELIGETAVDLLVERLSGREVAKKVVFGTEIIWRASTEGHHHHHH”, the “soluble on expression in E. coli” value was “soluble”.
With “MGMEYSFGFTKIDEAQKQSMVDGVFHSVAENYDKMNDILSLGLHRMWKNSMVAWLSPPAVFHWKVLDVAGGTGDIAFRILNASRQKAHATVLDINGSMLSVGKKRAEKNGLAPLIDFVEANAEHLPFEDQSFDAYTIAFGIRNVPHIDQALREAFRVLKPGGRFLCLEFSNVEMPLLDKIYDLWSFHAIPKLGQLIANDGDAYRYLVESIRKFPKQDDFAHMINHVGFSRVSYRNLTGAIAALHSAWKILEHHHHHH”, the “soluble on expression in E. coli” value is on record as “not soluble”.
With “AIADEEEEISVVQDMAYDYSGKRLATVSIDREICIWNKKDDWQRTYQWKAHEGPLFGVSWAHPCFGNILATGSYDKRVIIWEEPEASSSYSSSSMDKSTKGWTALAHLVDARDEVRQVQFAPPHLGLLLASGSADGYVRIYTCIDEADLHQWPLLTELDMDSPVVGMSWNPSVDSIPLIVVASHKDCRVWSMDNDTRRWTDWHLFRTSESDTADLSAVAWAPHVGRSFERIALGCEDGSILLFQFPRIQQGNKTNGHEMQPICRLNHGNERIVRLQWNMVGSILASSASDRMVRLWKALPQDGTRWNCFDVVHLNE”, the “soluble on expression in E. coli” value is “soluble”.
Turning to “MKTRHYSLLIFLAGSAFFPEISAQLANCQNLGTPINSTDCLCPGFVDGRLCENIKCQRWAVPDKNRCACAPGWYDRYCGLRGCRPPNEEQMDLEKRSFIIVFNTKTTMKMQLDSLKNNFKEMISKVSKNSKGVVNNWIENYIVYGFVESQSHTKIQKLFTENPDDVISFFNNMTLFDGDDTQPVLTAIQNAQQTYPKMQAHALVLVFTDSPASDATAWSHRFTDKNAEQSVLQISLIWRSKYSFFLSLPARTNFLSNGVDVYRRLSLTNHGDTFFIKDSNDLSNALLNVIGVQYFPENVQIGYGKTTDEQLQTYVDNDGDLVYILLTIRSSLQTTVPSISEATIVAEGDSYRLYSPASNIGDTVTIHCQNGTTYNYRMFIQSKNTLLFNYNDDMHIDVGNGMAVIGAKSIFLGTKNSANRDHNAHDLSGNANELTTNVSKNNTDTCSKKNLDSINDPRLQEPRQFIFILEQHSGNEQVYKTLAREINDILELVNSSTTSEYKKEFTLIAHDSAESHVLFSSYNPKIFAEKFSKLVNSLELTDNLDNTMGLLSIIHAQKMNILPTALVYYFTNQAVKNAQNLTRNWDLVKRDIEINFLTIADGVTTEIFALPKQLELVQKMTNGRLIPLGKTENSIFPIFKDMMTVTTLTTDNEQYNCHDTALEIDGYFEDGASVSISNYVTYKNPNFMSIRIDSKLFASGKWKLSALSTTGGCQITVRQKTSVGLVLGFTAATNDDNASTQIISQRSSSDSQPIFTTLKTTNHIVPTDLEIQIVNRQRYDQPVSYVKLGNAQRDTNSCSYDFISDSVVVPKSTLTMWIVSATDNAGKLILHRIFYYYLPRILSEFAVVLQGFMEIFVKLCSCSPPTLLQCLQYRPLQSQHK”, the “soluble on expression in E. coli” value is recorded as “not soluble”.
As for “MRERKKYGKHIPKSLSSKINKRKLIQKNICTNYKTIKIIDIYENLPYNQLNNGRTKIKEIILANDVLVVLLISGISRAYNMINGEFLCEINPNNFSVVHTIVYNSYNNTLIIAYASFPAHLQCKVIDCNDLKHGITNSSKLGILFGT”, the entry is “not soluble”; as for “MFSPTFKSFLLLCLLVVNSWAQDPTTTATSTTTVPSTSTVTTTTVASTSSGSTTASTAAGGSTSTTAAGGSTASTAAGGSTSTTAAGGSTASTAAGGPTGSTAAGGSTASTAAGGSTASTAAGGSTASTVAGATSVVPSSPAPPTQPPVNNGCELGWKFFNRPSGGWCIKVFPGYFALKEHAENACQANGAATLTGLQNKAEALFIQCEYRNSPYFSCFSCFQNSVLGYCSSTVEVLYEYSSMLSEMSAPSGSVWIGIHRTPACNRKPLSAQCNKNTAFRWTDKSATGVDGFVFQRGQPDNGGRALNQNCALLLASSKPFIDAGGRYYAAQMEDVHCNATFVPGNMARKTSGYACGKPNKCQPGWKFFDRQSGGWCMKVFTGFHAAKVDAEAACKDVGATLSGLENKEEAIFIQNALLARISQASGSVWIGIQRKAECLGKGLTASGTPTTSFEWTDNSASGVGGMVFQAGQPDNGVTALNQNCALLLASSQPYIDARGRFYAATMEDVPCVANFVASNEARRTRGYVCGKPL”, “not soluble”.
Consider “MGSDKIHHHHHHMTPIRLIIVGLGARALTWIKVARANPDVEIVALCDPDPSARSAAARQFPKLPIGKDITDIIGTAADAVLLATPPRGREAQIEACCTHGLAVLAEKPLSDSVVTAARFVEMAEQAGVPLIVGLNFRYLAVTQEKRRLLADGAIGTPEFGRFIYERWRDGTQDWLNSYPLTMDHPMLWEQSIHHFDLMRYVHGVEPEYVQAHTANPSWTMYEGDTNVSALIGFKGGFHITYQGTWQSGHEPMNFNWRTDGSEGIVVQRAMFGDLAWAKRMEPELTPVDLPAHEAWITDAAALLDRFVAILRGATPECTGRDHLQSLFMLEACILASARRATVTIDEVRALTTPKETS”, for which the “soluble on expression in E. coli” value is listed as “not soluble”.
In the case of “MGVVLARGAFRERSMLTLPDFPLPDARGRFGPYGGRYVPETLIPALEELEAAYREAKKDPAFLEELDHYLRQFAGRPTPLYHAKRLSEYWGGAQVFLKREDLLHTGAHKINNTLGQALLARRMGKRRVIAETGAGQHGVSVATVAALFGLECVVYMGEEDVRRQALNVFRMKLLGAEVRPVAAGSRTLKDATNEAIRDWITNVRTTFYILGSVVGPHPYPMMVRDFQSVIGEEVKRQSLELFGRLPDALIAAVGGGSNAIGLFAPFAYLPEGRPKLIGVEAAGEGLSTGRHAASIGAGKRGVLHGSYMYLLYDHDGQITPAHSVSAGLDYPGVGPEHSYYADAGVAEYASVTDEEALEGFKLLARLEGIIPALESAHAIAYAAKVVPEMDKDQVVVINLSGRGDKDVTEVMRLLGGEL”, the “soluble on expression in E. coli” value was “soluble”.
“MSEFLPFSRPAMGVEELAAVKEVLESGWITTGPKNQALEQAFCQLTGNQHAIAVSSATAGMHITLMALKIGKGDEVITPSLTWVSTLNMISLLGATPVMVDVDRDTLMVTPEAIESAITPRTKAIIPVHYAGAPADIDAIRAIGERYGIAVIEDAAHAVGTYYKGRHIGAKGTAIFSFHAIKNITCAEGGLIVTDNENLARQLRMLKFHGLGVDAYDRQTWGRAPQAEVLTPGYKYNLTDINAAIALTQLVKLEHLNTRRREIAQQYQQALAALPFQPLSLPAWPHVHAWHLFIIRVDEQRCGISRDALMEALKERGIGTGLHFRAAHTQKYYRERFPTLSLPNTEWNSERICSLPLFPDMTTADADHVITALQQLAGQ”: the “soluble on expression in E. coli” value is given as “soluble”.
The result for “MEIRWMKSFVAVAEELNYGRAAEVLHIAQPAVSQQVQQLEKRLGVKLFDRTTRSVRLTAAGERFLQPCKDALAGIVRAVDAAVIADPAVEGRVRVGFSGAYGQTELSSLARSVRRRYPLIDLVLEGATVSGQILDEIWEGQLDLGIVSDAVSHPHVLTRQISVEYLSALLPSDHPLAERKSIDLAELRDETFVANPAATGSTLRRDLLAACRDAGFTPNIVQETTDGIVLTALVAAGVGVALVPGDVQTYPNRVVLVPLDAGRYEVRAALAWSDRPVSPVVQTVLDLAAEVLPSPDALAVEQ” reads “not soluble”; that for “MKLNLEREKKILLKNRNRYRYFHKPGVSIIVCTNKMKYIENIFSNYSRINYPIKEMIIILNKMNLNISKYKKVAERFSNVRIIKKPENVTLGKCLNYGVDISKYNYIFKMDDDDYYGENYICDEITSLIYTNSDIVGKASFFVYYEGYGRLEIMYPEGNEKYIPNVAGSTLLIKKSVFNKVRFRNISLAEDACFIEDCCKQGIKIYSCNRFNYVYFKHRSLNDHTWKISSEDLMKVTKKVGKYKNYLPIVTILEHHHHHH”, “not soluble”; that for “MLKGFTPWPDELAETYRKNGCWAGETFGDLLRDRAAKYGDRIAITCGNTHWSYRELDTRADRLAAGFQKLGIQQKDRVVVQLPNIKEFFEVIFALFRLGALPVFALPSHRSSEITYFCEFAEAAAYIIPDAYSGFDYRSLARQVQSKLPTLKNIIVAGEAEEFLPLEDLHTEPVKLPEVKSSDVAFLQLSGGSTGLSKLIPRTHDDYIYSLKRSVEVCWLDHSTVYLAALPMAHNYPLSSPGVLGVLYAGGRVVLSPSPSPDDAFPLIEREKVTITALVPPLAMVWMDAASSRRDDLSSLQVLQVGGAKFSAEAARRVKAVFGCTLQQVFGMAEGLVNYTRLDDPEEIIVNTQGKPMSPYDESRVWDDHDRDVKPGETGHLLTRGPYTIRGYYKAEEHNAASFTEDGFYRTGDIVRLTRDGYIVVEGRAKDQINRGGEKVAAEEVENHLLAHPAVHDAAMVSMPDQFLGERSCVFIIPRDEAPKAAELKAFLRERGLAAYKIPDRVEFVESFPQTGVGKVSKKALREAISEKLLAGFKK”, “soluble”.
Regarding “MVARDTTAPQVKIVNPVTGNVSGSNVPISVNASDDSGASGITYALYIDGVLKATGKGSTLGYNWNIRNVAAGAHTVQVVAKDAAGNSASSSVSVTVVKLEHHHHHH”, the “soluble on expression in E. coli” value was “not soluble”.
For the sequence “MHIKSAIIVVSDRISTGTRENKALPLLQRLMSDELQDYSYELISEVVVPEGYDTVVEAIATALKQGARFIITAGGTGIRAKNQTPEATASFIHTRCEGLEQQILIHGSTHTHLAGLSRGIVGVTGRDDHAALIVNAPSSSGGITDTWAVISPVIPNIFEGLDAS”, the “soluble on expression in E. coli” value is recorded as “soluble”.
As to “MAHHHHHHMHACVAAIAMGEVGVYDDQRSSGQEISLAAAAAAGVQYARSSRTAFSCTSKSARQGGGGAVPIENLLPPLIEQPEKSLRAARGDTGAAITEDERAAIAMETWEHYMATAREATSAEGASMMPSATAAATMMSSASCANAAHSCTSAVAAEAPLVPIRSFPDALCALIERCTATPLVCLTLSDQQCQTTAVRDLLRALLTIMQRIEDSAVAAIDCEIALASHSSSSGHHTPVAATAALDLQAVRLAAVKGISRVLTTYLDGADGSAQPPTKASETFTAGLGHLDILSVFEDVVHQWAHVLTVLERGKELIGASAGVGKGSDVKAEDDLSGVPESPQGHRSGKDGTGAAAQLHWVLRIAYQIIAAEQREASRGSAEAAPRVRLLPPLLVPVALRTLSLITTVIPLVCRPASYVQLCVDVLWGASLLTPSESSRQLMYGSMGVAGLAGASNGSCEGEADVSRGAEASPPAMDLFLALLHQFNEGHSAAHRELRDDLVCLFAFLLRCDIQYVENKLVAQSCRAEWSPTNVFGVNSAVSPPPRLRSKLTPRRSISTSPLWRRSTLWRRCCSRQRAGPNSQRRCTRPQPQPQRRFSPPTSIEANLLR”, the “soluble on expression in E. coli” value is recorded as “not soluble”.
